Measured values taken from US20200392233A1 (ACCELERON PHARMA, published 2020).
Where a chain is given by its changes, count along the chain named.

T1: rat Alk7-Fc comprising protein (rat, UniProt P70539 26-113)
T1 construct: not shown: Fc portion and any linker of the Alk7-Fc comprising protein are not described
T1 sequence: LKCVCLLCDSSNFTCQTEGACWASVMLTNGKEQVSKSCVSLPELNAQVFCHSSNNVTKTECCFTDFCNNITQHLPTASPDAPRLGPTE

B1: G05 (antibody, V domains shown)
VH: QVQLVQSGAEVKKPGSSVKVSCKASGGTFSGQAISWVRQAPGQGLEWMGGIIPSFGTARYAQKFQGRVTITADESTSTAYMELSSLRSEDTAVYYCARTPYYDSSGYLDVWGQGTMVTVSS
VL: DIQMTQSPSSLSASVGDRVTITCQASHDIDNYLNWYQQKPGKAPKLLIYYASNLKTGVPSRFSGSGSGTDFTFTISSLQPEDIATYYCQQSRASPPTFGGGTKVEIK
notes: also called mAb G05; ALK7 mAb G05
B2: K02 (antibody, V domains shown)
VH: QVQLVQSGAEVKKPGSSVKVSCKASGGTFSSSAIGWVRQAPGQGLEWMGGIWPIFGTALYAQKFQGRVTITADESTSTAYMELSSLRSEDTAVYYCARDPREYIHVFDIWGQGTMVTVSS
VL: DIQMTQSPSSLSASVGDRVTITCRASQSISSYLNWYQQKPGKAPKLLIYGASSLQSGVPSRFSGSGSGTDFTLTISSLQPEDFATYYCQQAYSFPWTFGGGIKVEIK
notes: also called mAb K02; KO2
B3: J02 (antibody, V domains shown)
VH: EVQLLESGGGLVQPGGSLRLSCAASGFTFSVYAMSWVRQAPGKGLEWVSAISGSGDSTVYADSVKGRFTISRDNSKNTLYLQMNSLRAEDTAVYYCAKPSYQPIYWGQGTLVTVSS
VL: B2 VL with L11V, S28G, Y32W, N34A, G50A, Y92A, F94Y, W96L, I102T
notes: also called mAb J02; ALK7 mAb J02
B4: C03 (antibody, V domains shown)
VH: QLQLQESGPGLVKPSETLSLTCTVSGGSISSSAYYWAWIRQPPGKGLEWIGSIYLSGSTTYNPSLKSRVTISVDTSKNQFSLKLSSVTAADTAVYYCARDGRYQSRSPDYYYGMDVWGQGTTVTVSS
VL: EIVLTQSPGTLSLSPGERATLSCKASQSVSSSYLAWYQQKPGQAPRLLIYGAFSRANGIPDRFSGSGSGTDFTLTISRLEPEDFAVYYCQQLVSYPFTFGGGTKVEIK
notes: also called mAb C03; ALK7 mAb C03
B5: L02 (antibody, V domains shown)
VH: QVQLVQSGAEVKKPGASVKVSCKASGYTFAGYNMHWVRQAPGQGLEWVGIINPNSGWTNYAQKFQGRVTMTRDTSVSAAYMELSRLRSDDTAVYYCARDPVGARYEVFDYWGQGTLVTVSS
VL: EIVMTQSPATLSVSPGERATLSCRASQSVSSALAWYQQKPGQAPRLLIYSAFTRASGIPARFSGSGSGTEFTLTISSLQSEDFAVYYCQQAWAFPLTFGGGTKVEIK
notes: also called mAb L02
B6: J01 (antibody, V domains shown)
VH: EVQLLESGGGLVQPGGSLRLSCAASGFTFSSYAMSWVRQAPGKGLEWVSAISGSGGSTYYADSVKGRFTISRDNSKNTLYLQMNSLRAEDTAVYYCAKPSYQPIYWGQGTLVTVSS
VL: B2 VL with L11V, S28G, Y32W, N34A, G50A, Y92A, F94Y, W96L, I102T
notes: also called antibody J01

target: T2, ALK7-Fc comprising protein; assay: SPR (Biacore T100/T200) at 25 °C, antibody captured on FAB chip, ALK7-Fc analyte, 1:1 fit
T2 construct: It is probably the human protein
T2 sequence (Q8NER5 22-113): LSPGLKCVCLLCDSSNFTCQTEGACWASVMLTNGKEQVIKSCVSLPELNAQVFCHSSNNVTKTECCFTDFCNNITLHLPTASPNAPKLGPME
Procedure: (§1) Experiments were performed using a Biacore T100/T200 biosensor (Biacore/GE Healthcare) at 25 and 37° C. ALK7 antibodies were captured on custom made FAB chip. A concentration series of ALK7-Fc comprising protein was injected over the flow cells at a flow rate of […]. To obtain kinetic rate constants the corrected data were fit to a 1:1 interaction model using BiaEvaluation software (GE Healthcare). The equilibrium binding constant KD was determined by the ratio of binding rate constants kd/ka.

Kd	koff	kon	Binder
0.87 nM	2.59e-05 s⁻¹	29900 M⁻¹ s⁻¹	B1
12.4 nM	0.000291 s⁻¹	23500 M⁻¹ s⁻¹	B2
5.33 nM	0.000126 s⁻¹	23600 M⁻¹ s⁻¹	B3
0.33 nM	1.27e-05 s⁻¹	38300 M⁻¹ s⁻¹	B4
0.44 nM	1.21e-05 s⁻¹	27400 M⁻¹ s⁻¹	B5

target: T1, rat Alk7-Fc comprising protein; assay: SPR (Biacore T100/T200), antibody captured on FAB chip, Alk7-Fc analyte, 1:1 fit
Procedure: as §1

koff	Binder
0.000478 s⁻¹	B6
